Test results as given in US20220313831A1 (BAYLOR COLLEGE OF MEDICINE, published 2022).

Biological target: T1, CD6 (basal, native) on non-transduced T cells (human, UniProt P30203 18-668)
T1 construct: whole, on cells; also called basal CD6 expression on normal T cells
T1 sequence (looked up): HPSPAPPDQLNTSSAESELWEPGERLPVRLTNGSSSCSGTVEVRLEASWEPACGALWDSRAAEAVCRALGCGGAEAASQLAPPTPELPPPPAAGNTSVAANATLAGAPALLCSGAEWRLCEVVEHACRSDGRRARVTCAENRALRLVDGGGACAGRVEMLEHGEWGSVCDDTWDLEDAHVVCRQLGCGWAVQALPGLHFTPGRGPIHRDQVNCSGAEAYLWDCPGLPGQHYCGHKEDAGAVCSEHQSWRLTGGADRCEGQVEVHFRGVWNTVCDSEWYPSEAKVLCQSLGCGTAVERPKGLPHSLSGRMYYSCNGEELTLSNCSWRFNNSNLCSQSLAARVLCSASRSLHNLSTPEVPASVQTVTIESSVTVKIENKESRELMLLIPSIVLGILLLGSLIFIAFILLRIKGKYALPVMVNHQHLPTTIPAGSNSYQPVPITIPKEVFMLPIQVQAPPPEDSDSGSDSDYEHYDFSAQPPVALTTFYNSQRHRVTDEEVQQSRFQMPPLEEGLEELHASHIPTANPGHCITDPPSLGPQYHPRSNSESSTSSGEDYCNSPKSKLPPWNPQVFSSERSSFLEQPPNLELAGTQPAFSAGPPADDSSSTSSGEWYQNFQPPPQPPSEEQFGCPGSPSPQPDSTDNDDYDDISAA
Assay: flow cytometry; non-transduced T cells stained with ALCAM-Fc and anti-human IgG1 Fc FITC
Protocol: A) FACS analysis was used to confirm ALCAM specific binding to MBE CD6 D3 constructs on the surface of primary T cells. Cells were incubated with IgG1 Fc linked recombinant human ALCAM followed by an anti-human IgG1 Fc FITC conjugated Ab (filled black histogram). Staining of cells with anti-human IgG1 Fc FITC alone (open grey histogram), staining of non-transduced T cells (NT) (dotted open histogram) served as control for basal CD6 expression on normal T cells which bind natively to ALCAM.Fc. and percentage transduction is determined after staining of monomer, monomer+signaling domain, trimer, trimer+signaling domain, pentamer and pentamer+signaling domain (grey-filled histogram) (FIG. 6).

B1: IgG1 Fc linked recombinant human ALCAM (Fc fusion, UniProt Q13740 28-527, looked up)
chain: WYTVNSAYGDTIIIPCRLDVPQNLMFGKWKYEKPDGSPVFIAFRSSTKKSVQYDDVPEYKDRLNLSENYTLSISNARISDEKRFVCMLVTEDNVFEAPTIVKVFKQPSKPEIVSKALFLETEQLKKLGDCISEDSYPDGNITWYRNGKVLHPLEGAVVIIFKKEMDPVTQLYTMTSTLEYKTTKADIQMPFTCSVTYYGPSGQKTIHSEQAVFDIYYPTEQVTIQVLPPKNAIKEGDNITLKCLGNGNPPPEEFLFYLPGQPEGIRSSNTYTLTDVRRNATGDYKCSLIDKKSMIASTAITVHYLDLSLNPSGEVTRQIGDALPVSCTISASRNATVVWMKDNIRLRSSPSFSSLHYQDAGNYVCETALQEVEGLKKRESLTLIVEGKPQIKMTKKTDPSGLSKTIICHVEGFPKPAIQWTITGSGSVINQTEESPYINGRYYSKIIISPEENVTLTCTAENQLERTVNSLNVSAISIPEHDEADEISDENREKVNDQAK
notes: also called ALCAM-fc; ALCAM-Fc; not shown: IgG1 Fc (detected with anti-human IgG1 Fc antibody)
B1: binds.
